Data: patent publication US12064469B2, “Stable peptide compositions” (TearSolutions, Inc., priority 2017, dated 2024)
Entries after “also recorded” stand apart in the source; their conditions may differ.

Experiment: Comparative Lacripep stability in PBS vs citrate buffer at 60° C. by MALDI TOF mass spectrometry
Assay type: physicochemical
Details: 2 weeks
Description: FIGS. 1A and 1B illustrate the stability of Lacripep™ (SEQ ID NO: 1) (0.001%) in phosphate buffered saline (PBS), pH 4.5 and 7.0. The Lacripep™ solutions were analyzed by MALDI TOF mass spectrometry at time 0 (FIG. 1A) and after two weeks (FIG. 1B) at 60° C.
The Lacripep™ solutions were analyzed by MALDI TOF mass spectrometry at time 0 (FIG. 2A) and after two weeks (FIG. 2B) at 60° C.
Lacripep™ (SEQ ID NO. 1) stability was assessed in PBS at pH 4.5 and 7.0 (FIG. 1) and citrate buffer at pH 6.0 and 6.5 (FIG. 2). The initial concentration of Lacripep™ was 0.001%, and each trial was run at 60° C. The stability was assessed using MALDI TOF mass spectrometry at the initiation of the experiment (week 0, FIGS. 1A and 2A) and after two weeks (week 2, FIGS. 1B and 2B).

**Q.** For “Ac-Lys-Gln-Phe-Ile-Glu-Asn-Gly-Ser-Glu-Phe-Ala-Gln-Lys-Leu-Leu-Lys-Lys-Phe-Ser-NH2 (Ac-KQFIENGSEFAQKLLKKFS-NH2; listed as Homo sapiens) [Lacripep™]”, which “stability (Lacripep peak, MALDI TOF)” value (PBS pH 4.5, 0.001% Lacripep) is on record?
**A.** The value was “significant degradation; also recorded: a degradation product becomes apparent; also recorded: An additional degradation product is seen”.

**Q.** And the “stability (Lacripep peak, MALDI TOF)” value (PBS pH 7.0, 0.001% Lacripep)?
**A.** Its value is “significant degradation; also recorded: a degradation product becomes apparent”.

**Q.** And the “stability (Lacripep peak, MALDI TOF)” value (citrate buffer pH 6.0, 0.001% Lacripep)?
**A.** Its value is “no change in the intensity of the Lacripep™ peak”.

**Q.** And the “stability (Lacripep peak, MALDI TOF)” value (citrate buffer pH 6.5, 0.001% Lacripep)?
**A.** Its value is “no change in the intensity of the Lacripep™ peak”.
